Results on two molecules are retold here after paper PMC11326279 (bioRxiv, 2024).

The experiment concerns the target FtsH with a C-terminal FLAG epitope, chromosomally encoded (E. coli, UniProt P0AAI3 1-644). In words: cryo-EM structure.

Chain of FtsH with a C-terminal FLAG epitope, chromosomally encoded (P0AAI3 whole entry): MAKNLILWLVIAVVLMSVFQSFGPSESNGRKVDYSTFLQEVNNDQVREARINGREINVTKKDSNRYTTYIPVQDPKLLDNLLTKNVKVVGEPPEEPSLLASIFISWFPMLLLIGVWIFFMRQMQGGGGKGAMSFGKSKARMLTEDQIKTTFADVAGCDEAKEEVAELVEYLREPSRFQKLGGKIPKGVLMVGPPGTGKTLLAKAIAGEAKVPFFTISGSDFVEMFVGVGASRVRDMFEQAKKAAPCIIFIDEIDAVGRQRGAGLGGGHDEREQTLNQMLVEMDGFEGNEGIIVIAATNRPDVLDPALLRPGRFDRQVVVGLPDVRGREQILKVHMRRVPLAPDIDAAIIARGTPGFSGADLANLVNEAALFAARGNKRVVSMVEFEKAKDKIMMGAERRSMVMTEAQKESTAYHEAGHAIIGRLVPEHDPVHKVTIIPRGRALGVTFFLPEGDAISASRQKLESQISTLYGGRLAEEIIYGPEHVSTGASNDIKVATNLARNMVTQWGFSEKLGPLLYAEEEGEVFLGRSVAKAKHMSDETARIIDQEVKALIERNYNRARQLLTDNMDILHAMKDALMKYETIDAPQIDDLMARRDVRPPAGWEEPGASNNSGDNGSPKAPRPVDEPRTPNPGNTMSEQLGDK

B1: HflC, endogenous (natural protein, E. coli (endogenous in BL21(DE3)), UniProt P0ABC3 1-334, looked up)
chain: MRKSVIAIIIIVLVVLYMSVFVVKEGERGITLRFGKVLRDDDNKPLVYEPGLHFKIPFIETVKMLDARIQTMDNQADRFVTKEKKDLIVDSYIKWRISDFSRYYLATGGGDISQAEVLLKRKFSDRLRSEIGRLDVKDIVTDSRGRLTLEVRDALNSGSAGTEDEVTTPAADNAIAEAAERVTAETKGKVPVINPNSMAALGIEVVDVRIKQINLPTEVSEAIYNRMRAEREAVARRHRSQGQEEAEKLRATADYEVTRTLAEAERQGRIMRGEGDAEAAKLFADAFSKDPDFYAFIRSLRAYENSFSGNQDVMVMSPDSDFFRYMKTPTSATR
For the molecule B1, the binding result is “binds”.

B2: HflK, endogenous (natural protein, E. coli (endogenous in BL21(DE3)), UniProt P0ABC7 1-419, looked up)
chain: MAWNQPGNNGQDRDPWGSSKPGGNSEGNGNKGGRDQGPPDLDDIFRKLSKKLGGLGGGKGTGSGGGSSSQGPRPQLGGRVVTIAAAAIVIIWAASGFYTIKEAERGVVTRFGKFSHLVEPGLNWKPTFIDEVKPVNVEAVRELAASGVMLTSDENVVRVEMNVQYRVTNPEKYLYSVTSPDDSLRQATDSALRGVIGKYTMDRILTEGRTVIRSDTQRELEETIRPYDMGITLLDVNFQAARPPEEVKAAFDDAIAARENEQQYIREAEAYTNEVQPRANGQAQRILEEARAYKAQTILEAQGEVARFAKLLPEYKAAPEITRERLYIETMEKVLGNTRKVLVNDKGGNLMVLPLDQMLKGGNAPAAKSDNGASNLLRLPPASSSTTSGASNTSSTSQGDIMDQRRANAQRNDYQRQGE
Turning to B2, the binding result is listed as “binds”.
